Test results published in FireProtDB.
“And” between values parts separate entries of the source, which are not always exact repeats. Identical values can stand only once.

Conditions: whole UniProt chain shown
[1] = Streptomyces tendae, pH 2, Thermal, DSC, Sodium phosphate 10 mM, Na2SO4 10 mM, reversible: yes
[2] = Streptomyces tendae, pH 5, 25 °C, Thermal, DSC, Sodium phosphate 10 mM, Na2SO4 10 mM, reversible: yes
[3] = Streptomyces tendae, pH 7, Thermal, DSC, Sodium phosphate 10 mM, Na2SO4 10 mM, reversible: yes
[4] = Sus scrofa, pH 6.5, 20 °C, GdnHCl, Fluorescence, MES-NaOH 20 mM, NaCl 100 mM, reversible: yes
[5] = Thermus thermophilus (strain ATCC 27634 / DSM 579 / HB8), pH 7.4, 29 °C, Thermal, CD, Potassium phosphate 50 mM, reversible: Yes
[6] = Thermus thermophilus (strain ATCC 27634 / DSM 579 / HB8), pH 7.4, 35 °C, Thermal, CD, Potassium phosphate 50 mM, reversible: Yes
[7] = Thermus thermophilus (strain ATCC 27634 / DSM 579 / HB8), pH 7.4, Thermal, absorbance, Potassium buffer
[8] = Thermus thermophilus (strain ATCC 27634 / DSM 579 / HB8), pH 7.5, 25 °C, GdnHCl, Fluorescence, tris-HCl 20 mM, reversible: yes
[9] = Thermus thermophilus, pH 7, 25 °C, GdnHCl, CD, Potassium phosphate 20 mM, potassium chloride 50 mM
[10] = Vibrio harveyi, pH 7, 18 °C, Urea, CD, phosphate 50 mM, reversible: yes

B1: Pilin wild type, Q9A1S2 (protein)
chain: MKLRHLLLTGAALTSFAATTVHGETVVNGAKLTVTKNLDLVNSNALIPNTDFTFKIEPDTTVNEDGNKFKGVALNTPMTKVTYTNSDKGGSNTKTAEFDFSEVTFEKPGVYYYKVTEEKIDKVPGVSYDTTSYTVQVHVLWNEEQQKPVATYIVGYKEGSKVPIQFKNSLDSTTLTVKKKVSGTGGDRSKDFNFGLTLKANQYYKASEKVMIEKTTKGGQAPVQTEASIDQLYHFTLKDGESIKVTNLPVGVDYVVTEDDYKSEKYTTNVEVSPQDGAVKNIAGNSTEQETSTDKDMTITFTNKKDFEVPTGVAMTVAPYIALGIVAVGGALYFVKKKNA
Work on B1 yielded a Tm (Streptococcus pyogenes serotype M1, pH 8, Thermal, CD, potassium phosphate buffer 10 mM, transition: 2) of 85.1 °C.

B2: Streptogrisin-B wild type, P00777 (protein)
chain: MRIKRTSNRSNAARRVRTTAVLAGLAAVAALAVPTANAETPRTFSANQLTAASDAVLGADIAGTAWNIDPQSKRLVVTVDSTVSKAEINQIKKSAGANADALRIERTPGKFTKLISGGDAIYSSTGRCSLGFNVRSGSTYYFLTAGHCTDGATTWWANSARTTVLGTTSGSSFPNNDYGIVRYTNTTIPKDGTVGGQDITSAANATVGMAVTRRGSTTGTHSGSVTALNATVNYGGGDVVYGMIRTNVCAEPGDSGGPLYSGTRAIGLTSGGSGNCSSGGTTFFQPVTEALSAYGVSVY
Protein B2 has an unfolding free energy (Streptomyces griseus, pH 5, 0 °C, GdnHCl, Fluorescence, potassium acetate 10 mM) of 0.71 kcal/mol.

B3: Alpha-amylase inhibitor HOE-467A wild type, P01092 (protein)
chain: MRVRALRLAALVGAGAALALSPLAAGPASADTTVSEPAPSCVTLYQSWRYSQADNGCAQTVTVKVVYEDDTEGLCYAVAPGQITTVGDGYIGSHGHARYLARCL
For B3, the Tm [1] was 68.3 °C, the “heat capacity change of unfolding” value [1] was 0.69 kcal/mol/K and the “unfolding enthalpy (calorimetric)” value [1] was 56.4 kcal/mol. For the same protein, the “heat capacity change of unfolding” value [2] was 0.69 kcal/mol/K, the “unfolding enthalpy (calorimetric)” value [2] was 26.3 kcal/mol and the unfolding free energy [2] was 6.7 kcal/mol. The Tm [3] was 81.6 °C, the “heat capacity change of unfolding” value [3] was 0.69 kcal/mol/K and the “unfolding enthalpy (calorimetric)” value [3] was 65.6 kcal/mol.

B4: Inorganic pyrophosphatase wild type, P50308 (protein)
chain: MKLSPGKNAPDVVNVLVEIPQGSNIKYEYDDEEGVIKVDRVLYTSMNYPFNYGFIPGTLEEDGDPLDVLVITNYQLYPGSVIEVRPIGILYMKDEEGEDAKIVAVPKDKTDPSFSNIKDINDLPQATKNKIVHFFEHYKELEPGKYVKISGWGSATEAKNRIQLAIKRVSGGQ
For B4, the Tm (Sulfolobus acidocaldarius (strain ATCC 33909 / DSM 639 / JCM 8929 / NBRC 15157 / NCIMB 11770), pH 7, Thermal, CD, HEPES 20 mM, MgCl2 5 mM) was 98 °C and the Tm (Sulfolobus acidocaldarius (strain ATCC 33909 / DSM 639 / JCM 8929 / NBRC 15157 / NCIMB 11770), pH 7, Thermal, CD, HEPES 20 mM) was 89 °C.

B5: Cytochrome P450 119 wild type, Q55080 (protein)
chain: MYDWFSEMRKKDPVYYDGNIWQVFSYRYTKEVLNNFSKFSSDLTGYHERLEDLRNGKIRFDIPTRYTMLTSDPPLHDELRSMSADIFSPQKLQTLETFIRETTRSLLDSIDPREDDIVKKLAVPLPIIVISKILGLPIEDKEKFKEWSDLVAFRLGKPGEIFELGKKYLELIGYVKDHLNSGTEVVSRVVNSNLSDIEKLGYIILLLIAGNETTTNLISNSVIDFTRFNLWQRIREENLYLKAIEEALRYSPPVMRTVRKTKERVKLGDQTIEEGEYVRVWIASANRDEEVFHDGEKFIPDRNPNPHLSFGSGIHLCLGAPLARLEARIAIEEFSKRFRHIEILDTEKVPNEVLNGYKRLVVRLKSNE
In the case of B5, the Tm (Sulfolobus acidocaldarius (strain ATCC 33909 / DSM 639 / JCM 8929 / NBRC 15157 / NCIMB 11770), pH 7.4, Thermal, absorbance, Tris) is reported as 91 °C.

B6: Glutathione S-transferase omega-1 wild type, Q9N1F5 (protein)
chain: MSGGSARSLGKGSAPPGPVPEGLIRVYSMRFCPFAQRTLLVLNAKGIRHQVININLKNKPEWFFQKNPSGLVPVLENSQGQLIYESAITCEYLDEAYPGKKLLPDDPYEKACQKMVFELSSKVPPLLIRFIRRENEADCSGLKEELRKEFSKLEEVLTKKKTTYFGGSSLSMIDYLIWPWFERLEALELNECIDHTPKLKLWMAAMMKDPAVSALHIEPRDLRAFNDLYLQNSPEACDYGL
Work on B6 yielded a denaturant m value [4] of 11.1 kcal/mol/M, an unfolding free energy [4] of 23.3 kcal/mol and a denaturant m value (Sus scrofa, pH 6.5, 20 °C, Urea, Fluorescence, MES-NaOH 20 mM, NaCl 100 mM, reversible: yes) of 4.6 kcal/mol/M.

B7: Divalent-cation tolerance protein CutA wild type, Q7SIA8 (protein)
chain: MEEVVLITVPSEEVARTIAKALVEERLAACVNIVPGLTSIYRWQGEVVEDQELLLLVKTTTHAFPKLKERVKALHPYTVPEIVALPIAEGNREYLDWLRENTG
With B7 the Tm (Thermus thermophilus (strain ATCC 27634 / DSM 579 / HB8), pH 7, Thermal, DSC, potassium phosphate 50 mM, reversible: No) was 113 °C.

B8: wild type, Q53W59 (protein)
chain: MKRLSLREAWPYLKDLQQDPLAVLLEWGRAHPRLFLPLPRFPLALIFDPEGVEGALLAEGTTKATFQYRALSRLTGRGLLTDWGKSWKEARKALKDPFLPKSVRGYREAMEEEAWAFFGEWRGEERDLDHEMLALSLRLLGRALFGKPLSPSLAEHALKALDRIMAQTRSPLALLDLAAEARFRKDRGALYREAEALIVHPPLSHLPRERALSEAVTLLVAGHETVASALTWSFLLLSHRPDWQKRVAESEEAALAAFQEALRLYPPAWILTRRLERPLLLGEDRLPQGTTLVLSPYVTQRLYFPEGEAFQPERFLAERGTPSGRYFPFGLGQRLCLGRDFALLEGPIVLRAFFRRFRLDPLPFPRVLAQVTLRPEGGLPARPREGVRA
In the case of B8, the “heat capacity change of unfolding” value [5] is reported as 1.15 kcal/mol/K, the “unfolding enthalpy (van 't Hoff)” value [5] is reported as 71 kcal/mol and the unfolding free energy [5] is reported as 5.74 kcal/mol. For the same protein, the “heat capacity change of unfolding” value [6] was 1.17 kcal/mol/K, the “unfolding enthalpy (van 't Hoff)” value [6] was 61.7 kcal/mol and the unfolding free energy [6] was 4.3 kcal/mol. The Tm (Thermus thermophilus (strain ATCC 27634 / DSM 579 / HB8), pH 7.4, Thermal, CD, Potassium phosphate 50 mM, reversible: Yes) was 87 °C and 83.7 °C, the Tm [7] was 88 °C and the “heat capacity change of unfolding” value [7] was 1.14 kcal/mol/K. The “unfolding enthalpy (calorimetric)” value [7] was 71 kcal/mol.

B9: Protein GrpE wild type, Q56236 (protein)
chain: MEERNHENTLEKDLEAVGQEAQALEERLKAAEEELKGLKDKYLRLLADFDNYRKRMEEELKAREREGVLKALRALLPVLDDLDRALEFAEASPESIRQGVRAIRDGFFRILAGLGVEEVPGEGEAFDPRYHEAVGLLPGEPGKVAKVFQRGFRMGEALVRPARVAVGEEKREEADLE
In the case of B9, the unfolding free energy (Thermus thermophilus (strain ATCC 27634 / DSM 579 / HB8), pH 7.5, 25 °C, GdnHCl, CD, Tris-HCl 20 mM, KCl 100 mM, reversible: yes) is reported as 4.13 kcal/mol and the Tm (Thermus thermophilus (strain ATCC 27634 / DSM 579 / HB8), pH 7.5, Thermal, DSC, Hepes-NaOH 20 mM, KCl 100 mM, reversible: yes) is reported as 106 °C.

B10: Phosphoglycerate kinase wild type, P09403 (protein)
chain: MRTLLDLDPKGKRVLVRVDYNVPVQDGKVQDETRILESLPTLRHLLAGGASLVLLSHLGRPKGPDPKYSLAPVGEALRAHLPEARFAPFPPGSEEARREAEALRPGEVLLLENVRFEPGEEKNDPELSARYARLGEAFVLDAFGSAHRAHASVVGVARLLPAYAGFLMEKEVRALSRLLKDPERPYAVVLGGAKVSDKIGVIESLLPRIDRLLIGGAMAFTFLKALGGEVGRSLVEEDRLDLAKDLLGRAEALGVRVYLPEDVVAAERIEAGVETRVFPARAIPVPYMGLDIGPKTREAFARALEGARTVFWNGPMGVFEVPPFDEGTLAVGQAIAALEGAFTVVGGGDSVAAVNRLGLKERFGHVSTGGGASLEFLEKGTLPGLEVLEG
In the case of B10, the denaturant m value [8] is reported as 2.7 kcal/mol/M, the “denaturant midpoint (higher = more stable)” value [8] is reported as 2.34 M and the unfolding free energy [8] is reported as 6.32 kcal/mol.

B11: Small ribosomal subunit protein bS6 wild type, P23370 (protein)
chain: MRRYEVNIVLNPNLDQSQLALEKEIIQRALENYGARVEKVEELGLRRLAYPIAKDPQGYFLWYQVEMPEDRVNDLARELRIRDNVRRVMVVKSQEPFLANA
Protein B11 has a denaturant m value [9] of 2.5 kcal/mol/M and an unfolding free energy [9] of 8.5 kcal/mol.

B12: Triosephosphate isomerase, glycosomal wild type, P04789 (protein)
chain: MSKPQPIAAANWKCNGSQQSLSELIDLFNSTSINHDVQCVVASTFVHLAMTKERLSHPKFVIAAQNAIAKSGAFTGEVSLPILKDFGVNWIVLGHSERRAYYGETNEIVADKVAAAVASGFMVIACIGETLQERESGRTAVVVLTQIAAIAKKLKKADWAKVVIAYEPVWAIGTGKVATPQQAQEAHALIRSWVSSKIGADVAGELRILYGGSVNGKNARTLYQQRDVNGFLVGGASLKPEFVDIIKATQ
For B12, the Tm (Trypanosoma brucei brucei, pH 7, Thermal, CD, 3-(N-morpholino)propanesulfonic acid/dithiothreitol 20 mM/0.02 mM, EDTA 0.02 mM) was 52.2 °C, the Tm (Trypanosoma brucei brucei, pH 7.4, Thermal, CD, MOPS 20 mM, EDTA 1 mM, reversible: no) was 51.4 °C and the Tm (Trypanosoma brucei brucei, pH 7.5, Thermal, CD, TEA 0.9 mM, NaCl 1.2 mM) was 44 °C and 48 °C.

B13: Alkanal monooxygenase alpha chain wild type, P07740 (protein)
chain: MKFGNFLLTYQPPELSQTEVMKRLVNLGKASEGCGFDTVWLLEHHFTEFGLLGNPYVAAAHLLGATETLNVGTAAIVLPTAHPVRQAEDVNLLDQMSKGRFRFGICRGLYDKDFRVFGTDMDNSRALMDCWYDLMKEGFNEGYIAADNEHIKFPKIQLNPSAYTQGGAPVYVVAESASTTEWAAERGLPMILSWIINTHEKKAQLDLYNEVATEHGYDVTKIDHCLSYITSVDHDSNRAKDICRNFLGHWYDSYVNATKIFDDSDQTKGYDFNKGQWRDFVLKGHKDTNRRIDYSYEINPVGTPEECIAIIQQDIDATGIDNICCGFEANGSEEEIIASMKLFQSDVMPYLKEKQ
For B13, the denaturant m value [10] was 2.26 kcal/mol/M and 2.18 kcal/mol/M, the unfolding free energy [10] was 2.36 kcal/mol and 6.04 kcal/mol and the denaturant m value (Vibrio harveyi, pH 7, 18 °C, Urea, Fluorescence, NaH2PO4-K2HPO4 50 mM, transition: 3, reversible: yes) was 2.38 kcal/mol/M and 3.99 kcal/mol/M. For the same protein, the denaturant m value (Vibrio harveyi, pH 7, 18 °C, Urea, Fluorescence, phosphate 50 mM, reversible: yes) was 2.47 kcal/mol/M.
